From paper PMC6332122, “Identification of RNA Oligonucleotides Binding to Several Proteins from Potential G-Quadruplex Forming Regions in Transcribed Pre-mRNA” come the findings set out here.

For one data set, the target named is PDGF-BB (UniProt P01127 82-190). Briefly: SPR; SPR: PBS (137 mM NaCl, 2.7 mM KCl, 8 mM Na2HPO4, 2 mM KH2PO4) pH 7.4, 25 °C, protein on CM5; EMSA: 50 mM Tris-HCl, 100 mM KCl, pH 7.5, room temperature, 1 uM RNA, 15% PAGE in TBE. The settings on record: protein: commercial; chain copies: 2; label: 5' fluorescein for EMSA; none for SPR; parallel G4.
Chain of PDGF-BB (P01127 82-190): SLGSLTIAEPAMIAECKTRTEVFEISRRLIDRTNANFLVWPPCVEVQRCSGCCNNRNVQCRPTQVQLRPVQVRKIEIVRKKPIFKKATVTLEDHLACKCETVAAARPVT
Broadly, the Kd is the equilibrium constant for the complex coming apart. Low readings indicate tighter binding, high ones weaker binding. The molecule GGGGGCGGGAGCCAGAGACCAGUGGGCAGGG (structured_RNA) [VEGFA intronic G4_1] returned a dissociation constant (Kd) of 0.04 µM.

The same data set, now with this note: protein: commercial; chain copies: 2; parallel G4.
In the case of GGGGAAGGGGAGCUGGGGCGCAGCGGG (structured_RNA) [PDGFA intronic G4_1], the affinity, expressed as Kd, was 0.03 µM.
Still for that read-out and setting: the result for GGGGGCAGGGCGCAGGAGGGAGAGGGGG (structured_RNA) [VEGFA intronic G4_2] reads 0.03 µM; that for GGGGUGCGGGGAGCGGGGAAGGG (structured_RNA) [PDGFA intronic G4_2], 0.03 µM; that for GGAGGAGGGGGAGGAGGA (structured_RNA) [VEGFA 5' UTR G4], 0.11 µM.
With GGGUUUGGUUGGGCACAGGGCACGGG (structured_RNA) [PDGFB intronic G4_3], the Kd is 0.06 µM.
As to GGGCGCGGGGUUUGGGGUGGG (structured_RNA) [PDGFB intronic G4_1], binding was characterised by a dissociation constant (Kd) of 0.04 µM.
In turn, GGGCACUCGGGUAGGGGGAGGACUAGGG (structured_RNA) [PDGFB intronic G4_2] came in with an equilibrium dissociation constant (Kd) of 0.03 µM.

In a further data set the target is T1, VEGF165 (UniProt P15692-4 27-191). The description is as above. The settings on record: protein: commercial; label: 5' fluorescein for EMSA; none for SPR; parallel G4.
T1 sequence (P15692 other isoform, or with tags, fused parts or gaps): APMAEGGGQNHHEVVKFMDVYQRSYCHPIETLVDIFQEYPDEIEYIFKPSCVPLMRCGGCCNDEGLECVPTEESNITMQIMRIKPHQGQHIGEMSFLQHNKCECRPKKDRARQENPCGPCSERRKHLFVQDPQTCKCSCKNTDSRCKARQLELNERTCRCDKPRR
On to GGGGGCGGGAGCCAGAGACCAGUGGGCAGGG (structured_RNA) [VEGFA intronic G4_1], for which the affinity, expressed as Kd, was 0.14 µM.

Staying with this data set, now noted: protein: commercial; parallel G4.
On to GGGGAAGGGGAGCUGGGGCGCAGCGGG (structured_RNA) [PDGFA intronic G4_1], for which the Kd is 0.49 µM.
Regarding GGGGGCAGGGCGCAGGAGGGAGAGGGGG (structured_RNA) [VEGFA intronic G4_2], the Kd stood at 0.031 µM.
Still for that read-out and setting: the result for GGGGUGCGGGGAGCGGGGAAGGG (structured_RNA) [PDGFA intronic G4_2] reads 0.2 µM; that for GGAGGAGGGGGAGGAGGA (structured_RNA) [VEGFA 5' UTR G4], 0.3 µM.
The same measure, in the same setting: the result for GGGUUUGGUUGGGCACAGGGCACGGG (structured_RNA) [PDGFB intronic G4_3] reads 0.44 µM; that for GGGCGCGGGGUUUGGGGUGGG (structured_RNA) [PDGFB intronic G4_1], 0.13 µM.
As to GGGCACUCGGGUAGGGGGAGGACUAGGG (structured_RNA) [PDGFB intronic G4_2], the Kd came out at 0.15 µM.

The target in a further data set is PDGF-AA (UniProt P04085 87-211). The description is as above. The note with it: protein: commercial; chain copies: 2; label: 5' fluorescein for EMSA; none for SPR; parallel G4. Background: In EMSA bound probe runs differently from free probe, usually more slowly.
The molecule GGGGGCGGGAGCCAGAGACCAGUGGGCAGGG (structured_RNA) [VEGFA intronic G4_1] showed a Kd of 0.02 µM.

The same data set, now with this note: protein: commercial; chain copies: 2; parallel G4.
In turn, GGGGAAGGGGAGCUGGGGCGCAGCGGG (structured_RNA) [PDGFA intronic G4_1] gave a dissociation constant Kd of 0.03 µM.
The same measure, in the same setting: the result for GGGGGCAGGGCGCAGGAGGGAGAGGGGG (structured_RNA) [VEGFA intronic G4_2] reads 0.02 µM.
The same measure, in the same setting: the same measure for GGGGUGCGGGGAGCGGGGAAGGG (structured_RNA) [PDGFA intronic G4_2]: 0.03 µM; for GGAGGAGGGGGAGGAGGA (structured_RNA) [VEGFA 5' UTR G4]: 0.06 µM; for GGGUUUGGUUGGGCACAGGGCACGGG (structured_RNA) [PDGFB intronic G4_3]: 0.04 µM.
As to GGGCGCGGGGUUUGGGGUGGG (structured_RNA) [PDGFB intronic G4_1], binding was characterised by a dissociation constant (Kd) of 0.03 µM.
Still for that read-out and setting: the same measure for GGGCACUCGGGUAGGGGGAGGACUAGGG (structured_RNA) [PDGFB intronic G4_2]: 0.02 µM.

The next data set addresses alpha-Thrombin (human, UniProt P00734;P00734 328-363;364-622). In words: SPR; SPR: PBS (137 mM NaCl, 2.7 mM KCl, 8 mM Na2HPO4, 2 mM KH2PO4) pH 7.4, 25 °C, protein on CM5; EMSA: 50 mM Tris-HCl, 100 mM KCl, pH 7.5, room temperature, 1 uM RN.
Details: not given
Turning to GGGGGCGGGAGCCAGAGACCAGUGGGCAGGG (structured_RNA) [VEGFA intronic G4_1], the binding result is on record as “no binding”.
GGGGGCAGGGCGCAGGAGGGAGAGGGGG (structured_RNA) [VEGFA intronic G4_2]: the binding result is reported as “no binding”.
The same measure, in the same setting: the same measure for GGAGGAGGGGGAGGAGGA (structured_RNA) [VEGFA 5' UTR G4]: “no binding”.

In the next data set the target is T1, VEGF165. Briefly: SPR; up to 1000 nM RNA; SPR: PBS (137 mM NaCl, 2.7 mM KCl, 8 mM Na2HPO4, 2 mM KH2PO4) pH 7.4, 25 °C, protein on CM5; EMSA: 50 mM Tris-HCl, 100 mM KCl, pH 7.5, room temperature, 1 uM RNA, 15% PAGE in TBE. The settings on record: protein: commercial; label: 5' fluorescein for EMSA; none for SPR; unexpected parallel G4 by CD.
As to GUUUGCGGGAGCCAGAGACCAGUGGGCAGGG (structured_RNA) [VEGFA intronic G4_1 mutant], the binding result is reported as “no binding”.

Still in this data set, the particulars now being: protein: commercial; no parallel G4 by CD.
Consider UUUUUCAGGGCGCAGGAGGGAGAUUUUU (ssRNA) [VEGFA intronic G4_2 mutant], for which the binding result is reported as “no binding”.
Still for that read-out and setting: the result for GGAUUAGUGUGAGGAGGA (ssRNA) [VEGFA 5' UTR G4 mutant] reads “no binding”.
